1 molecule from patent US20210309747A1 (I MAB BIOPHARMA US, published 2021) can be followed below.

Assay [1] has as its target T1, human PD-L1 on Raji cells (human, UniProt Q9NZQ7 19-290). Kind of assay: cell-based or functional assay.
Assay [2] has as its target T1, human PD-L1 on Raji cells. Kind of assay: flow cytometry blocking assay on Raji-PDL1 cells; blocked ligand: biotinylated Avi- and His-tag human PD1 protein at 3 ug/mL, Streptavidin-PE, MFI. The procedure: Raji cells over-expressing human PDL1 were seeded into the 96 well plate at a concentration of 1×10⁵ cells per well. […] Fluorescence was measured by flow cytometry and analyzed by Flowjo software to determine the mean fluorescence intensities (MFI).

Assay [3] addresses T2, His-tagged human PD-L1 (human, UniProt Q9NZQ7 19-238, limits assumed).
T2 construct: also called Human PD-L1 protein; Human PDL1-His; not shown: His tag
Briefly: ELISA, plate coated with PDL1-His at 0.5 ug/ml, detection with HRP mouse anti-human IgG Fc, OD 450nm. As to the method:
(§1) Human, cyno, rat and mouse PDL1-His proteins were coated at 0.5 μg/ml at 4° C. overnight. […] The plates were washed and then incubated with HRP conjugated mouse anti-human IgG Fc antibody followed by development with TMB substrate and analyzed by spectrophotometer at OD 450 nm.
Background: An ELISA detects its analyte on a solid surface through an enzyme-linked reagent.

Assay [4] concerns the target cyno PDL1-His (cyno, UniProt G7PSE7 19-238). The description is as above. The procedure: as §1
In assay [5] the target is T2, His-tagged human PD-L1. Briefly: Biacore T200 SPR, B12-01 captured on a protein A chip, human PD-L1-His injected at 25 nM-1.56 nM. The source says: (§2) The ligand was allowed to associate for 120 s and dissociate for 600 s.
On the technique in general: Surface plasmon resonance follows binding to a sensor surface in real time, without labels.

Assay [6] has as its target rat PDL1-His (rat, UniProt D4AE25 19-239). Briefly: ELISA, PDL1-His coated at 0.5 µg/ml. The procedure: as §1
Assay [7] addresses T3, mouse PDL1-His (mouse, UniProt Q9EP73 19-238, limits assumed).
T3 construct: not shown: His tag
Briefly: ELISA, PDL1-His coated at 0.5 µg/ml. As to the method: as §1

For assay [8], the target named is T2, His-tagged human PD-L1. Briefly: SPR, Biacore T200; B12-01 captured on protein A chip, human PD-L1 25 nM-1.56 nM injected.
Source text: as §2

T2 sequence (Q9NZQ7 19-238 limits assumed): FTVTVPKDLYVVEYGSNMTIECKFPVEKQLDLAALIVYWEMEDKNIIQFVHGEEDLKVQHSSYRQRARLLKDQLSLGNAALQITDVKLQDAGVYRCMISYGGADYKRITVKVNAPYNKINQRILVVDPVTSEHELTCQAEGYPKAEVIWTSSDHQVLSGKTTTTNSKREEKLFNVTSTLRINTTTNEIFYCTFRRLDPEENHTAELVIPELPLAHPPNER
T1 sequence (Q9NZQ7 19-290): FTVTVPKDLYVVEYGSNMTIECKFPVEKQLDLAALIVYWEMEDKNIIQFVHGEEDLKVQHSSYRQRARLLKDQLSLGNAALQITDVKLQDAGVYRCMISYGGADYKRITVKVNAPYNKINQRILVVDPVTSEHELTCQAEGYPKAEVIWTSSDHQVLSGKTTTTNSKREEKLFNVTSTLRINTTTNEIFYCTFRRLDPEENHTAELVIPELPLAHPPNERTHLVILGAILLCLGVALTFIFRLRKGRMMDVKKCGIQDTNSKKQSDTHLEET
T3 sequence (Q9EP73 19-238 limits assumed): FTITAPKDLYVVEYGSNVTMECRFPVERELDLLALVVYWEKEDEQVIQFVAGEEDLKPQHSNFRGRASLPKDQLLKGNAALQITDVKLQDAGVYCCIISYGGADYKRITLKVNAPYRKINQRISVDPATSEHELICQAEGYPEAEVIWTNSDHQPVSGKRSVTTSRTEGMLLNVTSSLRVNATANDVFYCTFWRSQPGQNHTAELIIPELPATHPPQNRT
Sequence of cyno PDL1-His (G7PSE7 entry or part of it limits assumed): as the sequence (Q9NZQ7 19-238 limits assumed) above, with A33T, A34S, S62N, R68Q, Q82R, F173L, T185A, T192I, H215L counted along it
Sequence of rat PDL1-His (D4AE25 entry or part of it limits assumed): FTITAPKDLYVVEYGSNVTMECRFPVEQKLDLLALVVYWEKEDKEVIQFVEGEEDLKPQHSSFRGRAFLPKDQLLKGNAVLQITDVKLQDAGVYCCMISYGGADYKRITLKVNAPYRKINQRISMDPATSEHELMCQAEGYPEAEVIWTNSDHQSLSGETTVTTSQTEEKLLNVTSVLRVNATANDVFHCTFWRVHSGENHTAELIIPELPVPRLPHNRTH

B1: B12-01 (antibody, V domains shown)
VH: QVQLLESGGGLVQPGGSLRLSCAASGFTFSSYWMSWVRQAPGKGLEWVANIKQDGSEKYYVDSVKGRFTISRDNAKNSLYLQMNSLRAEDTAVYYCARVALWDDAFDIWGQGTMVTVSS
VL: DIQMTQSPSTLSASVGDRVIITCRASRGISSWLAWYQQKPGKAPNLLISKASSLESGVPSRFSGSGSGTDFTLTISSLQPEDFATYYCQQSSSIPLTFGGGTKVEIK
notes: Variant of B12 with serine at the C-terminus of VH and DIQM at the N-terminus of VL; captured on protein A and detected with anti-human IgG Fc, so a human IgG; also called B12-01 antibody
For the molecule B1, the “EC50, NF-AT-luciferase activity, PD-1 Jurkat cells with Raji-PD-L1 cells” value in assay [1] turned out to be 0.098 nM. Further, it took 0.14 nM to reach a half-maximal effect in assay [2] (EC50). In addition, the results for the “EC50 (read off the curve)” value in assay [3] and in assay [4] were approximately 0.03 nM and approximately 0.04 nM, respectively. Further, the koff (as a rule, the first-order rate constant of dissociation) in assay [5] was determined as 0.000795 s⁻¹. For the same molecule, the kon (as a rule, a measure of how fast the partners come together) in assay [5] amounted to 838000 M⁻¹ s⁻¹. Also, the binding result in assay [6] and in assay [7] was “no binding” each time. Further, the Kd (as a rule, the equilibrium constant for the complex coming apart) in assay [8] came to 0.948 nM.
